Test results published in paper PMC12312565, “Crystal structures of Escherichia coli glucokinase and insights into phosphate binding” (Acta Crystallographica Section F: Structural Biology …, 2025).

Biological target: the molecule itself
Experiment: crystal structure; phosphate-bound ecGLK, space group P4_(3)2_(1)2; crystals grown in 100 mM Tris-HCl pH 8.5, 200 mM lithium sulfate, 20%(w/v) PEG 5000 MME; data collected at room temperature; molecular replacement with PDB 1q18

B1: Escherichia coli glucokinase (enzyme, E. coli)
chain: MTKYALVGDVGGTNARLALCDIASGEISQAKTYSGLDYPSLEAVIRVYLEEHKVEVKDGCIAIACPITGDWVAMTNHTWAFSIAEMKKNLGFSHLEIINDFTAVSMAIPMLKKEHLIQFGGAEPVEGKPIAVYGAGTGLGVAHLVHVDKRWVSLPGEGGHVDFAPNSEEEAIILEILRAEIGHVSAERVLSGPGLVNLYRAIVKADNRLPENLKPKDITERALADSCTDCRRALSLFCVIMGRFGGNLALNLGTFGGVFIAGGIVPRFLEFFKASGFRAAFEDKGRFKEYVHDIPVYLIVHDNPGLLGSGAHLRQTLGHIL
notes: Escherichia coli glucokinase (glk gene cloned into pCDF-1b); Expression and purification follow Fatema et al., 2024; also called GLK; ecGLK; source: E. coli BL21 (DE3), purified (Ni-NTA, PD10 desalting)
  stoichiometry N: 2
